± gives the uncertainty stated by the source.

This series is described as follows: amyloid nucleation score (Sup35N fusion, yeast selection) (log enrichment); library NNK1; higher = more nucleation; inactive = no reads after selection. In short, it runs like this: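 Yeast lacking psi expressed peptides of 20 random codons fused to Sup35N, received 100 μM copper sulfate for 24 hours, and were then grown for 7 days at 30°C on medium lacking adenine and uracil. Illumina sequencing of input and output plasmid inserts provided the reads. Nucleation scores are DiMSum log enrichments of output over input, centred on the mode of non-aggregating sequences. Any sequence with under 100 input reads was excluded.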
As to YTFLYSPTHCPRENHPNSVL, the amyloid nucleation score stood at 0.211 ± 0.61.

In turn, SHTADFRVLLRLIQYERGLR displayed an amyloid nucleation score of 3.44 ± 0.18.

For the substance PSGCFVWEML, the amyloid nucleation score result was “inactive”.

Turning to VGFVLFLANSERYCDRISFG, the amyloid nucleation score was -0.13 ± 0.97.

For the substance LDYSSRSPLTDLST, the amyloid nucleation score turned out to be 0.041 ± 0.65.

In turn, TNVNF gave an amyloid nucleation score of -1.24 ± 0.74.

Substance GLIRSSVEVMLHGVHRWDPY had an amyloid nucleation score of 0.037 ± 0.42.

In the case of SGSLGS, the amyloid nucleation score is 0.386 ± 0.84.

In the case of ATQLAFSMILSAAVYFLKVV, the amyloid nucleation score was -1.33 ± 1.7.

On to LSEEWTIYKFNRRRMKIGRG, for which the amyloid nucleation score was 0.707 ± 0.4.

Regarding KSIRVNTMHRC, the amyloid nucleation score is 2.19 ± 0.3.

TFNLVLGLSWNPDMFGDKGV returned an amyloid nucleation score of 1.2 ± 0.41.

Turning to LTFTLTDPDSHDANDKWPLH, the amyloid nucleation score was -0.208 ± 0.66.

Take TVMHSAMIYILVPVSGSGQV: the amyloid nucleation score stood at 5 ± 0.064.

The substance SICTCKWYVSVWWAIWRINN showed an amyloid nucleation score of 1.59 ± 0.42.

Turning to SNTEP, the amyloid nucleation score was -0.487 ± 0.57.

Substance FGKFKRRRGMSKMNRMEITK yielded an amyloid nucleation score of -0.841 ± 1.5.

As to NDLYVGLDTYYIRHNLTRWF, the amyloid nucleation score is 0.447 ± 0.2.

In the case of FSVNP, the amyloid nucleation score was found to be 1.22 ± 0.69.

In the case of GATSFFFSFRESNPLSNNHS, the amyloid nucleation score amounted to 2.79 ± 0.099.

Consider VYPFD, for which the amyloid nucleation score was -1.32 ± 1.4.

Substance YGSMVMDVEAR displayed an amyloid nucleation score of -0.001 ± 0.45.

As to PSFNLNFVRINLQDGNMRLS, the amyloid nucleation score came to 7.038 ± 0.048.

In the case of SGIYGCSGRQDIKSKNYGSR, the amyloid nucleation score worked out at 1.12 ± 0.56.

Turning to GICDLLAHG, the amyloid nucleation score came to 0.322 ± 0.25.

The substance LPDTCCR registered an amyloid nucleation score of 0.994 ± 0.46.

Take DRFGWF: the amyloid nucleation score is -0.148 ± 0.32.

The substance LMRRAAVFFAGSRAGSRCLT yielded an amyloid nucleation score of -0.675 ± 0.4.

Take FFALVYW: the amyloid nucleation score was found to be 0.275 ± 0.29.

FAWVDPGFLWDNLTPGTDRC had an amyloid nucleation score of 0.253 ± 0.43.

QYSRLESLLM yielded an amyloid nucleation score of 0.483 ± 0.39.

The substance FERRCYRVSDHVAQVLHDPT gave an amyloid nucleation score of 0.515 ± 0.97.

FRHYTANYWYISRRRRMLSV: the amyloid nucleation score entry is “inactive”.

NVPIPRAFRDNRTL returned an amyloid nucleation score of 0.577 ± 0.5.

The substance WLVVHSQLFSSCNCLKNTVP gave an amyloid nucleation score of 0.968 ± 0.35.

With PYCFYPRCC, the amyloid nucleation score is 0.015 ± 0.85.

In turn, CSRNTSVA showed an amyloid nucleation score of 1.01 ± 0.57.

Substance HSYTRIE yielded an amyloid nucleation score of -0.413 ± 0.24.

Regarding TQDIILDNSHDATHQHTRRA, the amyloid nucleation score was -0.243 ± 1.

As to TQSSNPTLGGFQFHLWVNIF, the amyloid nucleation score is -1.85 ± 0.95.

For YYCTQRLNSHSVLMSLADRW, the amyloid nucleation score came to 0.035 ± 0.76.

In the case of TFFYKDSDRDSCMGMLLIVC, the amyloid nucleation score was found to be 0.295 ± 0.44.

In the case of SWSITPNKKFDKTVSFQYHD, the amyloid nucleation score entry is “inactive”.

For TGFGKKRATGWVAWGWEKLL, the amyloid nucleation score is -0.468 ± 0.32.

With GLVSSSLGGYVDADSYFECD, the amyloid nucleation score result was “inactive”.

Take VEYSVTCFLNYY: the amyloid nucleation score worked out at 5.71 ± 0.059.

For TYTCVNPVGHFTGGNRGILW, the amyloid nucleation score is 0.425 ± 1.1.

On to NGGYYAMGVGFLYVFALCHD, for which the amyloid nucleation score was 2.05 ± 0.27.

Consider NCDKMVNMLPLRFSDIALSM, for which the amyloid nucleation score was -0.566 ± 0.5.

On to MDSCFVLAHVAGNRMVLWNA, for which the amyloid nucleation score came to 0.268 ± 0.43.

CMNSMC returned an amyloid nucleation score of 0.066 ± 0.66.

The substance RIILGETGAALWWRI yielded an amyloid nucleation score of 4.61 ± 0.079.

As for RATQLF, the amyloid nucleation score is 1.81 ± 0.67.

The substance MTSLDFNYGISKLESSFYMY registered an amyloid nucleation score of -0.739 ± 0.29.

Turning to TITDNSPNKTMIEVEEIRL, the amyloid nucleation score worked out at 0.109 ± 1.1.

With RHWDIRSGHNLWQMVG, the amyloid nucleation score was -0.55 ± 0.38.

On to GVDKEINLFMYRPYRFVSGE, for which the amyloid nucleation score worked out at 1.1 ± 0.24.

Turning to SSFLASGL, the amyloid nucleation score was -0.529 ± 1.3.

Regarding NCVQARFDERCVRGLGCKFY, the amyloid nucleation score was -0.724 ± 0.64.

With MPEILSVRSF, the amyloid nucleation score was -0.943 ± 0.32.

Substance VRISWRGGGPLSCDVCACMT registered an amyloid nucleation score of 0.479 ± 1.2.

With WGMWSGLLFGEFWCS, the amyloid nucleation score was -0.424 ± 0.71.

In the case of NVPCRVLRFGHLSDIGIDCQ, the amyloid nucleation score came out at 0.705 ± 0.9.

Substance VVDFGSGCI returned an amyloid nucleation score of 0.423 ± 0.46.

In turn, LFHCRSIDRNLYYRHAFLIY displayed an amyloid nucleation score of 0.466 ± 0.39.

Turning to SLYLGNSGSDLGD, the amyloid nucleation score is 0.2 ± 1.1.

On to SNDKHKIRIYAGYFFVQRGC, for which the amyloid nucleation score worked out at 0.312 ± 0.37.

WLNFWILMSVMFVNMSSLFP returned an amyloid nucleation score of -1.01 ± 0.52.

On to FMMSNWTNLNSWKTL, for which the amyloid nucleation score was -0.122 ± 0.23.

On to SFSFKCDYYVPCRRYIFVIL, for which the amyloid nucleation score is -1.3 ± 1.1.

The substance IGVYSKNAQKGIRRDWCLWN returned an amyloid nucleation score of 1.33 ± 0.62.

In the case of IGWFHHFHHATLHRAISVFL, the amyloid nucleation score came to 0.633 ± 0.42.

Substance HLNNCLTRRNWTRYFSRVAP displayed an amyloid nucleation score of 0.95 ± 0.58.

For the substance KRYSGDIDMTSREMGLFK, the amyloid nucleation score came out at 0.356 ± 0.16.

YMLMKGSVRYH returned an amyloid nucleation score of 2.49 ± 0.2.

In turn, LFFTGVHRKF displayed an amyloid nucleation score of 4.28 ± 0.064.

For LDHYDVSGNRMVL, the amyloid nucleation score is -0.487 ± 0.27.

The substance MNLRETSAFSPCNEVL yielded an amyloid nucleation score of -0.063 ± 1.4.

For the substance SWPMTIQYGDSIWNWKMSVM, the amyloid nucleation score worked out at 0.388 ± 0.58.

Regarding SRLYVCFALSSLSISRNNYG, the amyloid nucleation score turned out to be 3.11 ± 0.22.

Substance MAICSGMTSWAVLLEVWN gave an amyloid nucleation score of 0.504 ± 0.57.

Take RMEQSCWMTSECRRWKGVWL: the amyloid nucleation score worked out at 0.827 ± 0.44.

The substance NSELFIGGDYLDIDST came in with an amyloid nucleation score of 0.591 ± 0.43.

For SGTSLPNITLLDTFCTRCFV, the amyloid nucleation score was -0.095 ± 0.22.

Consider QGFRVWKLNTIKRHSWMGFA, for which the amyloid nucleation score was found to be 0.772 ± 0.44.

For the substance ETPNAFHVHMSYVYRLRWSR, the amyloid nucleation score came to 2.75 ± 0.17.

As to RSSLNTCWMGSYNVLGTRTG, the amyloid nucleation score was 4.39 ± 0.11.

As for TDLNLVMKKGSYVGCSSSCV, the amyloid nucleation score was -0.605 ± 0.24.

For the substance STLSAYCPTILA, the amyloid nucleation score was 0.171 ± 0.25.

The substance TATDPLLSYGAHL displayed an amyloid nucleation score of -0.354 ± 0.31.

Regarding QKSLSVEPDAH, the amyloid nucleation score is -0.557 ± 0.37.

LGRGSGYRVLVMYLSVHC registered an amyloid nucleation score of 0.164 ± 0.29.

ASNYR: the amyloid nucleation score stood at 0.008 ± 0.88.

GMTCSQGSEWMLERGNRTEV came in with an amyloid nucleation score of -0.294 ± 0.66.

TSMLDLN yielded an amyloid nucleation score of -1.69 ± 1.8.

Turning to TVSDHPSFFCVYCADSSVGM, the amyloid nucleation score was 7.439 ± 0.073.

LYRVTYSNACMFGVVG came in with an amyloid nucleation score of 0.695 ± 0.54.

For the substance NSIPLDLSNTLLLCARC, the amyloid nucleation score is -0.02 ± 0.49.

On to LHCARGLVRRNMSSSLRWLA, for which the amyloid nucleation score result was “inactive”.

The substance ALMNNGWYILSNFPYCMVIY had an amyloid nucleation score of 5.4 ± 0.064.

Substance MRFKFMALGCEVLILGGFGS gave an amyloid nucleation score of 3.72 ± 0.16.

PVGYYILGMNGRVMNWSQRQ displayed an amyloid nucleation score of 1.73 ± 0.52.

For VSTNSDSLLGNCRKNPVHPS, the amyloid nucleation score stood at 1.03 ± 0.79.

As to LSSGSKYFSKVVDASLVCAC, the amyloid nucleation score was 0.377 ± 0.77.

With NRVLLSEAKSQFIG, the amyloid nucleation score amounted to 0.366 ± 0.59.

VAFNICSENRLVNFR displayed an amyloid nucleation score of -0.577 ± 0.4.

The substance SRGVQGMYDDYKDGGLLYLV yielded an amyloid nucleation score of -0.228 ± 0.19.

On to WFASYCISFN, for which the amyloid nucleation score stood at 2.27 ± 0.21.

SDFLTWCDQSLRCVDRYPNA registered an amyloid nucleation score of 0.648 ± 0.97.

Substance DRFLETICSEGSRPGSGN registered an amyloid nucleation score of 0.917 ± 0.21.

In turn, QKMYDILVIDLYESGDRPFV came in with an amyloid nucleation score of 0.532 ± 0.29.

On to SLFAQKS, for which the amyloid nucleation score was -0.273 ± 0.32.

With IQALDLDTVFDCC, the amyloid nucleation score is 6.45 ± 0.088.

With AGNRTVYWMLTSVSTSG, the amyloid nucleation score is 0.64 ± 0.75.

IVWSYSRTIYLNFI displayed an amyloid nucleation score of 0.873 ± 0.68.

Substance VLISPGFLSVARCLSLDTLF returned an amyloid nucleation score of -0.343 ± 0.33.

As for KTANGNCHENSQSDVFKSVS, the amyloid nucleation score came to 0.346 ± 0.31.

Turning to SLTFVPTLFTCMDLMHC, the amyloid nucleation score was determined as 7.415 ± 0.067.

On to MSLDAFV, for which the amyloid nucleation score result is “inactive”.

In turn, FHNVFCFSYFT registered an amyloid nucleation score of 7.21 ± 0.078.

Regarding FQIRSRISIDCVMVNRDELS, the amyloid nucleation score was 1.41 ± 0.18.

Turning to GFHSQG, the amyloid nucleation score is -0.172 ± 0.41.

On to FNGRVRGYHSLDNVVHGRLY, for which the amyloid nucleation score turned out to be 0.522 ± 0.58.

NDSDARYHVFRK came in with an amyloid nucleation score of -0.256 ± 1.2.

As to RQLFIGGAPDLC, the amyloid nucleation score amounted to 0.216 ± 0.59.

As to DRNLDEWGEASL, the amyloid nucleation score is -0.145 ± 1.5.

SPEGWYFRTTWLVA: the amyloid nucleation score entry is “inactive”.

On to DVIHDICHAVSIIGAWCRDR, for which the amyloid nucleation score was -0.061 ± 0.3.

DGHFVALSVLVCTMRC came in with an amyloid nucleation score of 1.01 ± 0.65.

Turning to RRVLSRGSAVSWALSSGGD, the amyloid nucleation score was -0.586 ± 0.46.

Regarding YPAVNRWSLAVFSVRVRLAG, the amyloid nucleation score was -0.046 ± 0.38.

The substance CLSYIVVALVRCTDIYYP had an amyloid nucleation score of 0.763 ± 0.42.

The substance IGNPMWCQWSAL had an amyloid nucleation score of 0.721 ± 0.74.

As to MEPLVTQCRHKG, the amyloid nucleation score is -1.31 ± 1.1.

WGFRENETMV returned an amyloid nucleation score of -0.742 ± 0.46.

With FMASTRRFPLSLMRRAHVYL, the amyloid nucleation score is -0.182 ± 1.3.

Turning to STNECSLLMGDSCGHHRSHC, the amyloid nucleation score is -0.171 ± 0.9.

On to DFFRSANMYLGFASGGEGNG, for which the amyloid nucleation score was 0.77 ± 0.52.

For the substance LLCFLFTK, the amyloid nucleation score turned out to be 3.32 ± 0.15.

IILGL yielded an amyloid nucleation score of 0.006 ± 0.73.

On to LERYVSMRFSWWDSSKKNTW, for which the amyloid nucleation score worked out at 4.18 ± 0.086.

As for GSWFYIFRV, the amyloid nucleation score amounted to 0.089 ± 0.34.
